The nature of data set [1]: Pharmacokinetic study of BNP conjugates, single IV dose in rats. The class given is in vivo, Sprague-Dawley rats. Particulars: for Cmax: test article in plasma (non-releasable PEG-BNP or native BNP). From the text: All animals were food fasted overnight.
Following the last collection point, the animals were euthanized. […]

Data set [2] can be described thus: Pharmacokinetic study of V681 (V13AD) conjugates, single IV dose in rats. The class given is in vivo, Sprague-Dawley rats. Particulars: 1.0 mg/kg equivalent protein mass IV. An excerpt: The weight range of the animals was 311-346 grams. All animals were food fasted overnight. […] The predose sample was collected from the JVC.
Following the last collection point, the animals were euthanized.

The mark [3] stands for this setting: BNP in plasma (released from conjugate or given as native), 0.459 mg/kg equivalent protein mass IV, rats.
The mark [4] stands for this setting: intact C2-FMOC-PEG2-40K-BNP, IV bolus, rats.
[5] abbreviates: 0.459 mg/kg equivalent protein mass IV, rats.
The mark [6] stands for this setting: test article in plasma (non-releasable PEG-BNP), 0.459 mg/kg equivalent protein mass IV, rats.

Values joined by “and” are separate entries in the source; they are usually repeats but may differ in a detail not shown here. Equal values may be shown once. Square brackets hold non-standard residues; d marks the D form. Peptide text beside a SMILES is read from it.

Usually Tmax stands for the time at which the peak concentration occurs. Regarding “[mono]-[mPEG2-C2-fmoc-NHS-40K]-[BNP-32] [C2-FMOC-PEG2-40K-BNP]”, in data set [1] (setting [3]), the “AUCINF” value came out at 162 ng·h/mL and the “MRTlast” value was 110 min. Moreover, in data set [1] (BNP in plasma (released from conjugate or given as native), 0.459 mg/kg equivalent protein mass IV, rats, 0.459 mg/kg), the “Tmax” value was 18 min and 19.8 min. The “time released BNP stayed above 20 ng/mL” value in data set [1] (following C2-FMOC-PEG2-40K-BNP IV dosing) came to 8 h. Further, in data set [1] (setting [4]), the “Peak concentration of the conjugate in plasma” value was determined as 1300 ng/mL, the “half-life of the conjugate in plasma” value was found to be 900 min and the “time plasma conjugate concentrations remained above 100 ng/mL” value is recorded as 24 h.

Usually Cmax stands for the peak of the concentration-time curve. As usually defined, the Vss is the apparent volume that relates the amount in the body to the concentration in plasma or blood. Turning to “[mono]-[mPEG2-Butyr-ALD-40K]-[BNP-32] [ButyrALD-40K-BNP]”, the “Cmax” value in data set [1] (setting [5]) came out at 1410 ng/mL. For the same compound, in data set [1] (setting [6]), the “AUCINF” value is 41300 ng·h/mL, the “CL” value stood at 0.185 mL/min/kg, the “MRTlast” value turned out to be 1440 min and the “T½” value was 1570 min. The “Vss” value in data set [1] (setting [6]) is 0.631 L/kg.

Regarding “[mono]-[mPEG-Butyr-ALD-10K]-[BNP-32] [ButyrALD-10K-BNP]”, the “Cmax” value in data set [1] (setting [5]) was 355 ng/mL. For the same compound, in data set [1] (setting [6]), the “AUCINF” value was 96.6 ng·h/mL, the “CL” value worked out at 79.17 mL/min/kg, the “MRTlast” value came out at 22.1 min and the “T½” value came out at 16.3 min. Besides, in data set [1] (setting [6]), the “Vss” value amounted to 2.27 L/kg.

What is called MRT is the average time that molecules of a dose stay in the body. Consider `CC[C@H](C)[C@H](NC(=O)[C@H](C)NC(=O)[C@H](CCCCN)NC(=O)[C@H](CC(C)C)NC(=O)[C@H](C)NC(=O)[C@@H](NC(=O)[C@H](Cc1c[nH]cn1)NC(=O)[C@H](CC(C)C)NC(=O)[C@@H](NC(=O)[C@@H](NC(=O)[C@H](CCCCN)NC(=O)[C@@H](C)NC(=O)[C@H](C)NC(=O)[C@H](CO)NC(=O)[C@H](CCCCN)NC(=O)[C@H](Cc1ccccc1)NC(=O)[C@@H](NC(=O)[C@H](CCCCN)NC(=O)[C@H](CC(C)C)NC(=O)[C@H](Cc1ccccc1)NC(=O)[C@H](CO)NC(=O)[C@H](CCCCN)NC(=O)[C@H](Cc1c[nH]c2ccccc12)NC(=O)[C@H](CCCCN)NC(C)=O)[C@@H](C)O)[C@@H](C)O)C(C)C)[C@@H](C)O)C(=O)N[C@@H](CO)C(=O)N[C@@H](CO)C(N)=O` [V681 (V13AD), V681(V13AD), reference compound] (Ac-KWKSFLKTFKSA[dA]KTVLHTALKAISS-NH2), for which, in data set [2], the “AUCINF” value amounted to 7210 ± 1430 ng·h/mL, the “CL” value is 2.37 ± 0.433 mL/min/kg, the “Cmax” value stood at 16500 ± 9670 ng/mL and the “MRT” value amounted to 19.8 ± 4.8 min. For the same compound, in data set [2], the “T1/2” value amounted to 36.6 ± 23.4 min and the “Vss” value is 0.0477 ± 0.018 L/kg.

Regarding `CC[C@H](C)[C@@H]1NC(=O)[C@H](CCCNC(=N)N)NC(=O)[C@H](CC(=O)O)NC(=O)[C@H](CCSC)NC(=O)[C@H](CCCCN)NC(=O)[C@H](CCCNC(=N)N)NC(=O)CNC(=O)[C@H](Cc2ccccc2)NC(=O)[C@@H](NC(=O)CNC(=O)[C@H](CO)NC(=O)CNC(=O)[C@H](CCC(N)=O)NC(=O)[C@@H](NC(=O)[C@H](CCSC)NC(=O)[C@H](CCCCN)NC(=O)[C@@H]2CCCN2C(=O)[C@@H](N)CO)C(C)C)CSSC[C@@H](C(=O)N[C@@H](CCCCN)C(=O)N[C@H](C(=O)N[C@@H](CC(C)C)C(=O)N[C@@H](CCCN=C(N)N)C(=O)N[C@@H](CCCN=C(N)N)C(=O)N[C@@H](Cc2cnc[nH]2)C(=O)O)C(C)C)NC(=O)CNC(=O)[C@H](CC(C)C)NC(=O)CNC(=O)[C@H](CO)NC(=O)[C@H](CO)NC(=O)[C@H](CO)NC(=O)[C@H](CO)NC1=O` [BNP, Brain Natriuretic Peptide (BNP-32), reference compound], in data set [1] (male, Sprague-Dawley, rat, plasma, 0.03 hr after IV BNP administration, all animals, read-out: plasma concentration at first time point), the level at 0.03 h was below 20 ng/mL.

(Values after patent US20110166063A1 (priority 2008, published 2011).)
